Test results: a protein production outcome set (Wang et al. 2014)

Assay: label from the status in PepcDB records

Sequence	protein production
MMSTHYIAGQWLAGQGETLESLDPVGQGVVWSGRGADATQVDAAVCAAREAFPAWARRPLEQRIELLERFAATLKSRADELARVIGEETGKPLWESATEVTSMVNKVAISVQAFRERTGEKSGPLADATAVLRHKPHGVVAVFGPYNFPGHLPNGHIVPALLAGNCVVFKPSELTPKVAELTLKAWIQAGLPAGVLNLVQGGRETGVALAAHRGLDGLFFTGSSRTGNLLHSQFGGQPQKILALEMGGNNPLVVEEVADLDAAVYTIIQSAFISAGQRCTCARRLLVPQGAWGDALLARLVAVSATLRVGRFDEQPAPFMGAVISLSAAEHLLKAQEHLIGKGAQPLLAMTQPIDGAALLTPGILDVSAVAERPDEEFFGPLLQVIRYSDFAAAIREANATQYGLAAGLLSDSRERFEQFLVESRAGIVNWNKQLTGAASSAPFGGIGASGNHRPSAYYAADYCAYPVASLESPSVSLPATLTPGIS	not failed
MMSTKNGTNQARTSRDVGSELIYLTKALKAPALRDAAARLAERARDEGWSHEEYLAACLQREVAARDSHGAEGRIRAARFPSRKSLEDFDFDHQRSVKREVIAHLGTLDFVAGKENVIFLGPPGTGKTHLATGLGIRACQAGHRVAFGTAAQWVARLAEAHQAGRLSDELTRLGRIPLIVVDEVGYIPFEPEAANLFFQFISGRYERASVIVTSNKPFGRWGEVFGDDTVAAAMIDRLVHHAEVISLKGDSYRMRGRDLGRVPAANTGE	failed
MMTALATVLEVQEDIVVVGCQQKTSCNHCSSKDSCGTGIVSKALPGKVHHWAFHTEKKLSVGQLVEIGLPEKNLLQSAAIVYLTPLLFLLFGALLSEWFLSPMIGLGELTTIVVSVLFALGGYQLAKRLSHHIEQKTEQQVSLLRVLGEPVSDTNLGNAAR	failed
MMTKKERIAIQRSMAEEALGKLKAIRQLCGAEDSSDSSDMQEVEIWTNRIKELEDWLWGESPIA	not failed
MMTQQELEKYLWGAATTLRGTIDAGDYKQYIFPLMFFKRICDVYDEEFENALAESDGDLEYAAFAENHHFQVPKGAHWNDVRETTTNIGLALQNAMRAIEKANPDTLEGIFGDASWTNKERLSDAMLTNLIEHYSEQTLNLKNVPDDKLGNAYEYLIKEFADDSGHTAAEFYTNRTVVKLMTMIMAPQPGESVYDPTCGSGGLLLNCALHLKDEGKEYRTLKLYGQEINLLTSAIARMNMFMHGIEEFDIVRGNTLSNPGLLENDELKKFNVILANPPYSIKSWDRKAFESDPYGRNVWGTPPQGCADYAFQQHIQKSLDLGNGRSISLWPHGILFRDAETAMRRKMIEQDQVECVIGLGPNLFYNSPMEACLLITKTNKIESKKDKILFINAVKEVRQDKNIGYLDQVHIDKIFNAYNKFENEDSFAVLVDKQEVLDKKANMAINLYIRPDSLVSSEEACFATAYQEWQQSSGDLKQSMEKLFKELV	not failed
MMVAVFWISFLLLAYIYFGYPVCIRLLASARPLPVNKSGAYQPKVSILIAAYNEAKDIEATLRNKLALDYPREQLEILVVSDESEDGTDEIVQAVAADAPFPVKLFRQVPRQGKTAGLNMLKQHAEGEILAFSDANSEWDQQALKALVSNFNDPAVGYVTGKMVYVNPEGALIGDGCSAYMKYENWLRAQETLVGSVVGVDGGIDAMRKELHSELNADQLPDFVQPLKVVEQGYRVVYEPGALLKEEALSDGGSEFSMRVRVSLRALWALKDMKQLMSPANDPVFAWQLISHKLLRYAAFAPMITLAIAALYLAPVKGLYALAAIGYGLFLYFAWAGYQKESRGQSLSTMYALPYYFVLLNLASFKAFVAFAKGEKKVVWNPRKG	failed
MNAADLTIWLVAGAGVLSFISPCSLPLYPSYLSYITGVSIQDLKENRGIMQKSAIIHTVFFMIGFSVIFYALGLSVSWIGITFSSNQKLIQQIGGIFIVLMGLFMTGLFQPKWLMAEKKVQYRSKSTGYIRSILVGMTYAAGWTPCVGPIFSAVLMLGATNPEGALLYITAYTLGFAVPFFVMAFFIGKVKWIVTYANVMMKIGGGMMIVTGILLYTNQMTKITAFFIRLFGGFTGF	failed
MNAAVVRRTQEALGKVIRRPPLTEKLLSKPPFRYLHDIITEVIRMTGFMKGLYTDAEMKSDNVKDKDAKISFLQKAIDVVVMVSGEPLLAKPARIVAGHEPERTNELLQIIGKCCLNKLSSDDAVRRVLAGEK	not failed
MNAINTKVTPTKRKQVALFSSDPNFKRDVATRLDALAIYDVRVSETDDFLKGPPADTRPGIVILDLGGGDLLGKPGIVEARALWATVPLIAVSDELTSEQTRVLVRMNASDWLHKPLDGKELLNAVTFHDTGNQ	not failed
MNAIPRVALVWLLVAQVLVILPHLAYMPLWIAAMWLGCAAWRVQVFRMRAGYPRAWVKLALALLAGAGVWLSRGSLVGLDAGAVLLIAAFILKLVEMKTRRDALVLVFLGFFAVVVGYLFDDGFLAALYSLLPVTALLAALIGLQQSAFASRPWPTLRLAGGLLLQALPLMLLLFLFFPRLGPLWSLPMPGNKGVTGLSESMAPGDIAELGRSAELAFRVRFEGALPPREQLYWRALTMERFDGRRWAQAPQWSGEDALHWQKRGPELRYDVIMQPSSQPWLFALDVAQTDQTDTRLMSDFHLQRRQPVEQRLFYRVSSWPQALRESSIDPRTRWRNLQLPMHGNPRARALADELRQAHAQPQALVAALLQRFNHEPFAYTLKPPATGADGVDDFLFDTRSGFCAHYAGAMAFVLRAAGIPARVVAGYQGGELNPAGNYLLVHQFDAHAWVEYWQPEQGWLSVDPTYQVAPERIEQGLEQALAGDSEYLADAPLSPLRYRGLPWLNDMRLAWDSLNYGWQRWVLAYQGEQQGAFLQRWFGGLDPTRLGLLLGAAAILSVGLLALFLLKPWQGRGDLRSRQLRRFERLLEMHGLRRSPGEGLRSYGERAARVLPAQAPAIAAFVGAFEAQRYGHGGADDPGLRLRALRRALPWRLVRTPTRDGRGEEQA	failed
MNALVAHNSEAWDKKVETGNEWTVAVEQQVIEQAKKGNWDIRVTPMKDVPKDWFPPIKGLKVLCLASGGGQQGPVLAAAGADVTVLDNSEKQLNQDRMIAERDGLTIHTVKGSMDDLSVFNDESFDVIVHPVANVFVENVLPVWKEAYRVLKRNGILISGFVNPVVFLFDTVLEQQGVLKVKHSIPYADPEDLPKHKVKELIENNEALEFGHSLEDQIKGQIDAGFIVTGFYEDKGGFVLDQYIHTYSATRSVKVLEHHHHHH	not failed
MNANIMLNEDITPIGSDYDTVRGVIELLTLDYREQPSLEAIAARLGQSPTQLQKTFTRWAGLSPKAFLQAVTLDHAKRLLREEDLPLLETSIEVGMSGPGRLHDLFVTHEAMSPGEWKAKGGGLTIRYGFHASPFGLALVMITDRGLAGCAFADPGDERACFEDMAGRWPNADYVEDREATAPYAARIFEPAMWTADKPLRVVLLGTDFQVRVWKSLLKIPMGRAVTYSNIACDIGQPTASRAVGAAVGANPVSFVVPCHRAVGKSGALTGYHWGLTRKRAMLGWETGKALEHHHHHH	failed
MNARDNKFNTWNDSRGNYWSDYEGSDENGDGIGDSAYAVNPEAGSMDYMPLMEYLHSSPVLPTARFTSDITEGFAPLSVRFKDFSENATSRLWMFGDGNTSDSPSPLHTFFNEGEYIVSLIVSNENDSDSASVTIRALEHHHHHH	not failed
MNASAVETIYESTEDKAALTSVVDLVKLSDQYRQSAILHYAVADKLFDLTQTGRTPAEVAASFGMVEGKAAILLHALAALGLLTKEGDAFRNTALTERYLTTTSADYIGPIVEHQYLQWDNWPRLGEILRSEKPLAFQQESRFAHDTRARDAFNDAMVRLSQPMVDVVSELGVFARARTVIDLAGGHGTYLAQVLRRHPQLTGQIWDLPTTRDAARKTIHAHDLGGRVEFFEKNLLDARNFEGGAADVVMLNDCLHYFDAREAREVIGHAAGLVKPGGALLILTMTMNDDRVTPALSADFSLHMMVNTNHGELHPTPWIAGVVRDAGLAVGERSIGRYTLLIGQRSSGEV	not failed
MNASLTPDQVSKKLKQFFSDHLPISQFMGLEIESYDGDTLILTAPLEPNINDKQTAFGGSLYNAAVMACWGMVYLKTQEENIACNQVVTEGNMKYIAPVYGRIRAICHAPDEEELANFFDHFERKGKARISLEAAIYNDACVMKIEPETKPSVKFNGQYAILKNQ	not failed
MNAWNTIYDQFNPIAFSLGSIEVHWYGLAYACAIVTAFYMALRMIQKDPKRFPIERKEFESYFLWAELGIVLGARIGYILIYEPNSGYYLTHFWQIFNPFDSHGNFVGIRGMSYHGGLVGFLIASYLYSRKDLKKLLIYLDLIAISLPLGYVFGRIGNFLNQELVGRIVPKDSHLGQIIGIMVDNELRYPSQLIEAFLEGVIVFLMVMWAKKHTKTHGLLIVVYGLGYSLMRFIAEFYREPDSQMGVYFLNLSMGQILSLFMVIVSLGILLYATKNSKKIKENQ	failed
MNDDSQDKIIHDIRIQLRKAATELSRWKLYGSSKWAAEALAGLAEAIDVDQTHSLADESPLRNKQGVPKQMFEIPQNGFGLSETEYDLYLLGSTLFDAKEFDRCVFFLKDVTNPYLKFLKLYSKFLSWDKKSQESMENILTTGKFTDEMYRANKDGDGSGNEDINQSGHQRANLKMVSNEHESQSNISSILKEINTFLESYEIKIDDDEADLGLALLYYLRGVILKQEKNISKAMSSFLKSLSCYSFNWSCWLELMDCLQKVDDALLLNNYLYQNFQFKFSENLGSQRTIEFNIMIKFFKLKVFEELNGQLEDYFEDLEFLLQVFPNFTFLKAYNATISYNNLDYVTAESRFDDIVKQDPYRLNDLETYSNILYVMQKNSKLAYLAQFVSQIDRFRPETCCIIANYYSARQEHEKSIMYFRRALTLDKKTTNAWTLMGHEFVELSNSHAAIECYRRAVDICPRDFKAWFGLGQAYALLDMHLYSLYYFQKACTLKPWDRRIWQVLGECYSKTGNKVEAIKCYKRSIKASQTVDQNTSIYYRLAQLYEELEDLQECKKFMMKCVDVEELLEGIVTDETVKARLWLAIFEIKAGNYQLAYDYAMGVSSGTSQEIEEARMLARECRRHM	failed
MNDGKATPGEAGCRENQLLKLPGFGNFTIIDRYIARQFLTIFLFALASFAALFILINLVENLDRFLDRHISFGRILIYYLSGLPDTFLLTSPLSVLLASLFVTGKLSMQSELPALKSAGMSLSRLMKPFLLVTMAIAALNTINSCFIAPAMYDWSKGFEKRYLKKQQDNGEEPLHIRESNNRILTVAKIGPDKKSATTVSLETFNGSQIVSRIDADSLRIITRHKYWIFYNTKQRTFSKGAETLVTRAGADTLKLSLAPNTFKMIDTDPDEMNIVQHIDFIWQKARSGLPGLERATVKLHTKLALPLASMIIVLIGVPLSSKKKRSGLAVEISISLLIGLLYLGMLKTIGSLGYDGLLNPVLAAWLPDILFIIAGTFLYRSADH	failed
MNDGRMLGLFTFIIMIISIISQIIALSASQRNIYLGIRIPQEEINNTKIKAIGKRYIWSNLLLGIPIAALLSYCVYKINNDILYLAAIILFMAISFLLYYYYNRKILKIKKEEGWLKTKKQEIVIDTSFAKRKSERMVAGSRWFLLSLIFIVICLIVNVKQYPNIPYRYPTHWDINGRPNAYSLKSYMTIFSMPINQLILIAVMFFSYKITFWSKNELDGRNPKDSGERNIKFRNVWAIYAIVVNFFLQIIFLIQDFQIMHIVNTNPKFIIIAVITMTIVVICSSLIISIKVGQGGSRLKTRGNKSEFGINMRDDDKYWRLGNLFYCNKNDPSIFVQKRFGIGWTVNVGNKFGVLFYVLIIVFLIICIAISR	failed
MNDILQLTIVLIASLIATLVSRRLKIPAVVGQMLVGILIAPSVLGLVHSGHVLEVMSEIGVILLMFLAGIESDLTVLKKNFKASMLVAVGGVIVPLIAFGLVAFGFGYGISTSFFYGIVFAATSVSITVEVLQEYGKLSTRAGSIILGAAVVDDILAVLILSIFTSFKNGGSGSHLFIQFLLELLFFAFLFLVHKLIPRFWKFVQKLPIANKNTIVALIICLGLSLLADSVGMSAVIGSFFAGLAISQTEVSHKIEEYTSAIGYVIFIPVFFVLIAISVQFDSLIHHPWIILLFTFLAILTKFIPAYFVGKASKLSTGESMLIGTGMISRGEMALIVAQIGLTSAIITDEVYSELVIVIILATVLAPFLIKMVLKKYDN	failed
